Read-outs that look alike come from different tables or passages of the source. Bridge positions count the residues as written; N and C are the ends. Square brackets hold non-standard residues; d marks the D form. Ends that are not written are not given here. * marks the point of attachment. Glc = O-glucosyl on Ser side chain (Ser(OGlu)/Ser(OGlc)); NH(3,5-(CF3)2-benzyl) = FC(F)(F)c1cc(CN*)cc(C(F)(F)F)c1; Dmt = Cc1cc(O)cc(C)c1C[C@H](N)C(=O)O; Nle = CCCC[C@H](N)C(=O)O
Key:
human δ opioid receptor [1] = target: T1, human δ opioid receptor (human, UniProt P41143 1-372); experiment: cell-based or functional assay
T1 sequence (P41143 whole entry, stated change not applied): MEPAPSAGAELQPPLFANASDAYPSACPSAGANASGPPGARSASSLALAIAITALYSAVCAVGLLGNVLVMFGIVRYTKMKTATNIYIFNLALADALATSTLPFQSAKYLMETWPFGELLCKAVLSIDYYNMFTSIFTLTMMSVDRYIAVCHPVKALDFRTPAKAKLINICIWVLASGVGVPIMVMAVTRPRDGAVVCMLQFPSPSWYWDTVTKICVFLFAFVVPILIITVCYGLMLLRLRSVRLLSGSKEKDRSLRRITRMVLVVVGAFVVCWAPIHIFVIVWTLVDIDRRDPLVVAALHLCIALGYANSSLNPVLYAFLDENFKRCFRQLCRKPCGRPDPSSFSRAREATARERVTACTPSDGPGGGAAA

rat µ opioid receptor [2] = target: T2, rat µ opioid receptor (rat, UniProt P33535 1-398); experiment: cell-based or functional assay
T2 sequence (P33535 whole entry): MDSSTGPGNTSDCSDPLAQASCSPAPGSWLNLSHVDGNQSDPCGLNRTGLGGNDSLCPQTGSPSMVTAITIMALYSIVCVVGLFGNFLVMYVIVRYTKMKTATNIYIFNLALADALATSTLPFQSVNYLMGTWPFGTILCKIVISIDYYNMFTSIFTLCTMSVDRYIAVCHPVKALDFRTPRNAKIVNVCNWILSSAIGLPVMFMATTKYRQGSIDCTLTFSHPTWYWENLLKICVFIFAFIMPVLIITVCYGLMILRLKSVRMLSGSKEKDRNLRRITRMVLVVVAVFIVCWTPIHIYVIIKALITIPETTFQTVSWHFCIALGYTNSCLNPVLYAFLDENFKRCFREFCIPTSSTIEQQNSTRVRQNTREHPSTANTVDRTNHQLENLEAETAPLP

rat µ opioid receptor [3] = target: T2, rat µ opioid receptor; experiment: competition vs [3H]DAMGO, rMOR cell membranes
human δ opioid receptor [4] = target: T1, human δ opioid receptor; experiment: competition vs [3H]DPDPE, hDOR cell membranes
human NK1 receptor [5] = target: T3, human NK1 receptor (human, UniProt P25103 1-407); experiment: competition vs [3H]Substance P, hNK1 CHO cell membranes
T3 construct: whole, on cells; membrane preparations of the transfected cells were used; also called hNK1; human neurokinin-1 receptor
T3 sequence (P25103 whole entry): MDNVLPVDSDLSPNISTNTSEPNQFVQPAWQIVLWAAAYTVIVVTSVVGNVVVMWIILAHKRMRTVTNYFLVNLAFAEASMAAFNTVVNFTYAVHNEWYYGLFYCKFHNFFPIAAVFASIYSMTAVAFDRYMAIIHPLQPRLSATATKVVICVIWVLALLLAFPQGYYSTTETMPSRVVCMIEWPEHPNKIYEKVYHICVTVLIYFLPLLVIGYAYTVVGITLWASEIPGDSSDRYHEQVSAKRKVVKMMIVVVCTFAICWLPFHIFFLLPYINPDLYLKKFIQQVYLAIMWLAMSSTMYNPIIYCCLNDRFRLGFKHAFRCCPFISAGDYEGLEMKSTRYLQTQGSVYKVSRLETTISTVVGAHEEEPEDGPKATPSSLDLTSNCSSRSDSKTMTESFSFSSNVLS

[6] = target: T4, µ opioid receptor of the guinea pig isolated ileum (guinea pig, UniProt P97266 1-98); experiment: cell-based or functional assay
T4 sequence (P97266 whole entry): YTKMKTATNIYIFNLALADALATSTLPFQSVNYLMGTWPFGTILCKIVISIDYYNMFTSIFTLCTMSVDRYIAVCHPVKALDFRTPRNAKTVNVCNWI

guinea pig NK1 receptor [7] = target: T5, guinea pig NK1 receptor (guinea pig, UniProt P30547 1-407); experiment: cell-based or functional assay
T5 sequence (P30547 whole entry): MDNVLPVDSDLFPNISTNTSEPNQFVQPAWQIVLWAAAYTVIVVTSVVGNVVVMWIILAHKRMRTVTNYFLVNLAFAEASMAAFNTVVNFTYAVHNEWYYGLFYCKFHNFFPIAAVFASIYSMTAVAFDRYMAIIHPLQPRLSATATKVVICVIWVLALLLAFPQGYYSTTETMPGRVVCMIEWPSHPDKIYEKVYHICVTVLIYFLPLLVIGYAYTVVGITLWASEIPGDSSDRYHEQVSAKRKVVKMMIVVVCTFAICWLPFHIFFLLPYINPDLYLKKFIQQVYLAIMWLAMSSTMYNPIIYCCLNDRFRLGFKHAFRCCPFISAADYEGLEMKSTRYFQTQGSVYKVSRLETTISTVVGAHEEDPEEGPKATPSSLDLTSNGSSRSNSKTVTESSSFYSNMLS

human δ opioid receptor [8] = target: T1, human δ opioid receptor; experiment: competition vs [3H]DPDPE, hDOR cell membranes; remark: listed apart in the source
human δ opioid receptor [9] = target: T1, human δ opioid receptor; experiment: competition vs [3H]DPDPE, hDOR cell membranes; remark: listed apart in the source
human NK1 receptor [10] = target: T3, human NK1 receptor; experiment: competition vs [3H]Substance P, hNK1 CHO cell membranes; remark: listed apart in the source
rat NK1 receptor [11] = target: T6, rat NK1 receptor (rat, UniProt P14600 1-407); experiment: competition vs [3H]Substance P, rNK1 CHO cell membranes
T6 construct: whole, on cells; membrane preparations of the transfected cells were used; also called rNK1; rNK-1
T6 sequence (P14600 whole entry): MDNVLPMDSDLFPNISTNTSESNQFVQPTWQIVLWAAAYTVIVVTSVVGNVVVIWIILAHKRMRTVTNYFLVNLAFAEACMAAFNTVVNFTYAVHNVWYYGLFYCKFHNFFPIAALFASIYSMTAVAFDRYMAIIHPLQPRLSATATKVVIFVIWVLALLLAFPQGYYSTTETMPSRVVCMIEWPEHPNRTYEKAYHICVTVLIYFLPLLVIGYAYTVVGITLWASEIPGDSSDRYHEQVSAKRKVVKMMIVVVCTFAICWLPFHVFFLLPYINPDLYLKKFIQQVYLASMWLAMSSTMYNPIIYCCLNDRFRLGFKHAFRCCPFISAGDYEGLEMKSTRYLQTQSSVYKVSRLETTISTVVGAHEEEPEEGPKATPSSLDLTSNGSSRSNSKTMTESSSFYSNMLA

human NK1 receptor [12] = target: T3, human NK1 receptor; experiment: competition vs [3H]Substance P, hNK1 CHO cell membranes; remark: listed apart in the source
rat NK1 receptor [13] = target: T6, rat NK1 receptor; experiment: competition vs [3H]Substance P, rNK1 CHO cell membranes; remark: listed apart in the source
human δ opioid receptor [14] = target: T1, human δ opioid receptor; experiment: cell-based or functional assay; remark: listed apart in the source
[15] = target: T4, µ opioid receptor of the guinea pig …; experiment: cell-based or functional assay; remark: listed apart in the source
guinea pig NK1 receptor [16] = target: T5, guinea pig NK1 receptor; experiment: cell-based or functional assay; remark: listed apart in the source
human δ opioid receptor [17] = target: T1, human δ opioid receptor; experiment: competition vs [3H]DPDPE, hDOR cell membranes; remark: listed apart in the source
human NK1 receptor [18] = target: T3, human NK1 receptor; experiment: competition vs [3H]Substance P, hNK1 CHO cell membranes; remark: listed apart in the source
rat µ opioid receptor [19] = target: T2, rat µ opioid receptor; experiment: cell-based or functional assay; remark: listed apart in the source
human δ opioid receptor [20] = target: T1, human δ opioid receptor; experiment: cell-based or functional assay; remark: listed apart in the source
rat µ opioid receptor [21] = target: T2, rat µ opioid receptor; experiment: cell-based or functional assay; remark: listed apart in the source
[22] = target: T4, µ opioid receptor of the guinea pig …; experiment: cell-based or functional assay; remark: listed apart in the source
rat µ opioid receptor [23] = target: T2, rat µ opioid receptor; experiment: competition vs [3H]DAMGO, rMOR cell membranes; remark: listed apart in the source
rat µ opioid receptor [24] = target: T2, rat µ opioid receptor; experiment: competition vs [3H]DAMGO, rMOR cell membranes; remark: listed apart in the source
rat NK1 receptor [25] = target: T6, rat NK1 receptor; experiment: competition vs [3H]Substance P, rNK1 CHO cell membranes; remark: listed apart in the source
rat NK1 receptor [26] = target: T6, rat NK1 receptor; experiment: as above; remark: listed apart in the source
human NK1 receptor [27] = target: T3, human NK1 receptor; experiment: competition vs [3H]Substance P, hNK1 CHO cell membranes; remark: listed apart in the source
human δ opioid receptor [28] = target: T7, human δ opioid receptor (human, UniProt P41143 1-372); experiment: competition vs [3H]DPDPE, hDOR membranes
T7 construct: whole, on cells; Assayed as membrane preparations of transfected cells; also called hDOR; DOR
T7 sequence (P41143 whole entry, stated change not applied): as the sequence (P41143 whole entry, stated change not applied) above

B1: Tyr[DPenGlyPhePen]ProLeuTrpNHBn(CF3)2 (peptide)
peptide: YXGFXPLW
modifications: D-Pen at 2 and Pen at 5 (written X); disulfide 2-5; C-terminal NH-3,5-Bzl(CF3)2 amide
notes: cyclic; also called TY046
GTP binding EC50 (human δ opioid receptor [1]): 17.3 nM | GTP binding EC50 (rat µ opioid receptor [2]): 28.8 nM | Ki (rat µ opioid receptor [3]): 2330 nM | Ki (human δ opioid receptor [4]): 1.7 nM | Ki (human NK1 receptor [5]): 0.0053 nM

B2: DmtDAlaGlyPheMetProLeuTrpNHBn(CF3)2 (peptide)
peptide: [Dmt][dA]GFMPLW-{NH(3,5-(CF3)2-benzyl)}
notes: also called TY032
GPI/LMMP IC50 [6]: 18.6 nM | GPI/LMMP Substance P antagonist Ke (guinea pig NK1 receptor [7]): 7.5 nM | Ki (human δ opioid receptor [8]): 0.12 nM | Ki (human δ opioid receptor [9]): 0.12 nM | Ki (human NK1 receptor [10]): 0.0079 nM | Ki (rat NK1 receptor [11]): 2.3 nM | Ki (human NK1 receptor [12]): 0.0079 nM | Ki (rat NK1 receptor [13]): 2.3 nM

B3: TyrDAlaGlyPheNleProLeuTrpNHBn(CF3)2 (peptide)
peptide: YAGFXPLW
modifications: D-Ala at 2; Nle at 5 (written X); C-terminal NH-3,5-Bzl(CF3)2 amide
notes: also called TY045
GTP binding EC50 (human δ opioid receptor [14]): 5 nM | GTP binding Emax (human δ opioid receptor [14]): 125% | GPI/LMMP IC50 [15]: 463 nM | GPI/LMMP SP antagonist Ke (guinea pig NK1 receptor [16]): 40.8 nM | Ki (human δ opioid receptor [17]): 1 nM | Ki (human NK1 receptor [18]): 0.0028 nM

B4: TyrDAlaGlyPheNleProSer(OGlu)TrpNHBn(CF3)2 (peptide)
peptide: Y[dA]GF[Nle]PS(Glc)W-{NH(3,5-(CF3)2-benzyl)}
notes: also called TY041
GTP binding EC50 (human δ opioid receptor [14]): 7.9 nM | GTP binding Emax (human δ opioid receptor [14]): 62% | GTP binding EC50 (rat µ opioid receptor [19]): 18 nM | GTP binding Emax (rat µ opioid receptor [19]): 42% | GPI/LMMP IC50 [15]: 517 nM | GPI/LMMP SP antagonist Ke (guinea pig NK1 receptor [16]): 1.8 nM | GTP binding EC50 (human δ opioid receptor [20]): 7.9 nM | GTP binding Emax (human δ opioid receptor [20]): 62% | GTP binding EC50 (rat µ opioid receptor [21]): 18 nM | GTP binding Emax (rat µ opioid receptor [21]): 42% | GPI/LMMP IC50 [22]: 517 nM | Ki (rat µ opioid receptor [23]): 8 nM | Ki (rat µ opioid receptor [24]): 8 nM | Ki (rat NK1 receptor [25]): 14 nM | Ki (rat NK1 receptor [26]): 14 nM

B5: DmtDAlaGlyPheNleProSer(OGlu)TrpNHBn(CF3)2 (peptide)
peptide: [Dmt][dA]GF[Nle]PS(Glc)W-{NH(3,5-(CF3)2-benzyl)}
notes: also called TY056
GTP binding EC50 (rat µ opioid receptor [21]): 44.9 nM | GTP binding Emax (rat µ opioid receptor [21]): 66% | Ki (rat µ opioid receptor [24]): 1.9 nM | Ki (human NK1 receptor [27]): 0.0017 nM

B6: Tyr[DCysGlyPheNleProDCys]TrpNHBn(CF3)2 (peptide)
peptide: Y[dC]GF[Nle]P[dC]W-{NH(3,5-(CF3)2-benzyl)}
modifications: disulfide 2-7
notes: also called TY038; TY38
fold lower affinity than TY027 (human δ opioid receptor [28]): 85 fold

— patent US8026218 (UNIVERSITY OF ARIZONA, dated 2011)
